Experimental data taken from paper PMC12559229, “Conserved hydrophilic checkpoints tune FocA-mediated formate:H^+ symport” (Nature Communications, 2025).
Ends that are not written are not given here. GS linker = not defined here

Columns and labels:
[1] = biological target: T1, Pyruvate formate-lyase (PflB), full length, His-tagged (E. coli, UniProt P09373 1-760); assay: cross-linking; XL-MS with sulfo-SDA: 10 uM FocA modified with 50-fold sulfo-SDA (100 mM MOPS, 150 mM NaCl, DDM, pH 7.0), then mixed with 10 uM PflB and UV-irradiated (365 nm); digest with trypsin and GluC, LC/MS/MS; conditions: both partners purified
T1 construct: Pyruvate formate-lyase PflB, E. coli, UniProt P09373, full length; also called His-tagged PflB
T1 sequence (looked up): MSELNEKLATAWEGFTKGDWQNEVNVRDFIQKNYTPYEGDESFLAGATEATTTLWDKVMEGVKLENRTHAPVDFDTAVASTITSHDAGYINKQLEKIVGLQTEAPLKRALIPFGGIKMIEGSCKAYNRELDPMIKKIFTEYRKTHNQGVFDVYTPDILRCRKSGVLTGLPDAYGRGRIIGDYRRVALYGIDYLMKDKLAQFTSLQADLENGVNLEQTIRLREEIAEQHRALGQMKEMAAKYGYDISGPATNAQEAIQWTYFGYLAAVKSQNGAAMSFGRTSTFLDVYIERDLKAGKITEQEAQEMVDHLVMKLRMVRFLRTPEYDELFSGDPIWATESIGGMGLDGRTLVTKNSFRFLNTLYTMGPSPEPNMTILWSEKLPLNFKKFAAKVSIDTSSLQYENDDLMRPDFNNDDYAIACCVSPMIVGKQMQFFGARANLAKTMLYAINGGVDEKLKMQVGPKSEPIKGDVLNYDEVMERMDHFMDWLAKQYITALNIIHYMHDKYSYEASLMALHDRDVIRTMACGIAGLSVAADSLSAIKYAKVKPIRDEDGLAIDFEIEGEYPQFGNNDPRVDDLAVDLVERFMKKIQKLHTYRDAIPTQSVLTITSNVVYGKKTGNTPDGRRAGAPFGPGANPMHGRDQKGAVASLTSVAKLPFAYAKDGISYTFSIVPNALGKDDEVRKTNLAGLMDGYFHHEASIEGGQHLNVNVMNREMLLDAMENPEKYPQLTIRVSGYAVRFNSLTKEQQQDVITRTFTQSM

[2] = biological target: the molecule itself; assay: cryo-EM structure; purified StrepII-tagged FocA solubilised in DDM, 5 mg/mL, vitrified at 4 °C; single-particle reconstruction with C5 symmetry (wild type also C1)
[3] = biological target: T1, Pyruvate formate-lyase (PflB), full …; assay: cross-linking; XL-MS with DSBU: 10 uM PflB with equimolar FocA N-terminal peptide, 50- or 100-fold DSBU, 30 min, room temperature, 100 mM MOPS, 150 mM NaCl, pH 7.0; digest with trypsin and GluC, LC/MS/MS; conditions: both partners purified

B1: FocA (formate channel), wild type, full length, C-terminal StrepII-tag (natural protein, E. coli, UniProt P0AC23 1-285, looked up)
chain: MKADNPFDLLLPAAMAKVAEEAGVYKATKHPLKTFYLAITAGVFISIAFVFYITATTGTGTMPFGMAKLVGGICFSLGLILCVVCGADLFTSTVLIVVAKASGRITWGQLAKNWLNVYFGNLVGALLFVLLMWLSGEYMTANGQWGLNVLQTADHKVHHTFIEAVCLGILANLMVCLAVWMSYSGRSLMDKAFIMVLPVAMFVASGFEHSIANMFMIPMGIVIRDFASPEFWTAVGSAPENFSHLTVMNFITDNLIPVTIGNIIGGGLLVGLTYWVIYLRENDHH
notes: FocA, formate channel of the formate-nitrite transporter family, E. coli, UniProt P0AC23, full length; Pentamer in the cryo-EM structure; In the sulfo-SDA experiment FocA was first modified on amines with sulfo-SDA; also called native FocA; wild-type FocA; source: E. coli BL21(DE3) transformed with pfocA3; solubilised from membranes with DDM, purified (Strep-Tactin Sepharose); not shown: StrepII, …
[1]
  binding result: binds
[2]
  stoichiometry N: 5

B2: FocA-H209N variant, C-terminal StrepII-tag (natural protein, E. coli, UniProt P0AC23 1-285, looked up)
chain: MKADNPFDLLLPAAMAKVAEEAGVYKATKHPLKTFYLAITAGVFISIAFVFYITATTGTGTMPFGMAKLVGGICFSLGLILCVVCGADLFTSTVLIVVAKASGRITWGQLAKNWLNVYFGNLVGALLFVLLMWLSGEYMTANGQWGLNVLQTADHKVHHTFIEAVCLGILANLMVCLAVWMSYSGRSLMDKAFIMVLPVAMFVASGFENSIANMFMIPMGIVIRDFASPEFWTAVGSAPENFSHLTVMNFITDNLIPVTIGNIIGGGLLVGLTYWVIYLRENDHH
notes: FocA, E. coli, UniProt P0AC23, with the exchange H209N; made by mutagenesis of pfocA3, which carries the native focA gene; Reconstructed with C5 symmetry; also called H209N-FocA; source: E. coli BL21(DE3) transformed with pfocAH209N; solubilised from membranes with DDM, purified (Strep-Tactin Sepharose); not shown: StrepII, C-terminal, kept
[2]
  binding result: binds

B3: FocA N-terminal peptide (residues 1-35 of FocA, GS linker, Strep-II tag) (peptide)
peptide: MKADNPFDLLLPAAMAKVAEEAGVYKATKHPLKTF-{GS linker-Strep‑II tag}
modifications: reading uncertain
notes: FocA, E. coli, residues 1-35 (the N-terminus of FocA); Whole peptide as printed, 45 residues: [residues removed]; also called N-terminal FocA peptide (1-45); N-terminal peptide of FocA; source: synthetic peptide (Thermo Fisher); not shown: StrepII (after a GS linker), C-terminal, kept
[3]
  binding result: binds
